These results are taken from paper PMC4249841.

The test deals with Hsp70-mCherry (human, cytoplasmic, heat-inducible hsp70 (hsp72) with a C-terminal mCherry tag) (human) (UniProt P0DMV8). Briefly: FRET or BRET; live U2OS cells co-expressing the GFP-tagged PGK (donor) and the mCherry-tagged partner (acceptor); donor/acceptor (D/A) fluorescence ratio per cell under steady illumination, temperature titration 20°C-45°C, fitted by a two-state model. In general terms: In BRET a luciferase serves as donor, and the signal depends on an acceptor being close.
UniProt P0DMV8, sequence (P0DMV8 whole entry): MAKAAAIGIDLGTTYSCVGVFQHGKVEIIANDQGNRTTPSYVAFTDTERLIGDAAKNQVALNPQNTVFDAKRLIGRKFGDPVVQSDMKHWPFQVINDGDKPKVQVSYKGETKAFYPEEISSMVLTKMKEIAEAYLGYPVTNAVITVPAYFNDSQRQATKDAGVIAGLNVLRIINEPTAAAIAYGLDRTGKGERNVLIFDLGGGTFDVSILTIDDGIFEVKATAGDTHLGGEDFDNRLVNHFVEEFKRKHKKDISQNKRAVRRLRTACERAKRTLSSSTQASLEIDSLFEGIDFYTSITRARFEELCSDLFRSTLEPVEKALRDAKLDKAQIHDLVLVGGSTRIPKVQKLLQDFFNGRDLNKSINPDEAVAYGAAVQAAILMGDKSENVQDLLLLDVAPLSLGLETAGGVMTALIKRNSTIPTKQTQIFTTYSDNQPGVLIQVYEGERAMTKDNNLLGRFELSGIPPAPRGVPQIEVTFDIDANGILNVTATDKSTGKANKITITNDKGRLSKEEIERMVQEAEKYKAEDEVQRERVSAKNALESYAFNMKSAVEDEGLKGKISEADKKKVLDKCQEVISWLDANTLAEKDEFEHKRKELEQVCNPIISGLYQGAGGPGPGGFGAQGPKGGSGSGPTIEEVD

For “ltPGK-GFP (low melting temperature mutant of phosphoglycerate kinase, Y122W/W308F/W333F, with an N-terminal GFP tag) (enzyme)”, the temperature midpoint of binding amounted to 39 °C and the temperature of binding onset is 35 °C.
